We go through eleven molecules from patent publication US20240400677A1 (ELECTRA THERAPEUTICS, published 2024).

The target in assay [1] is T1, cynomolgus monkey SIRPα on CHO cells (cynomolgus monkey, UniProt A0A2K5VYQ9 31-507).
T1 construct: whole, on cells; also called Cyno SIRPα CHO
T1 sequence: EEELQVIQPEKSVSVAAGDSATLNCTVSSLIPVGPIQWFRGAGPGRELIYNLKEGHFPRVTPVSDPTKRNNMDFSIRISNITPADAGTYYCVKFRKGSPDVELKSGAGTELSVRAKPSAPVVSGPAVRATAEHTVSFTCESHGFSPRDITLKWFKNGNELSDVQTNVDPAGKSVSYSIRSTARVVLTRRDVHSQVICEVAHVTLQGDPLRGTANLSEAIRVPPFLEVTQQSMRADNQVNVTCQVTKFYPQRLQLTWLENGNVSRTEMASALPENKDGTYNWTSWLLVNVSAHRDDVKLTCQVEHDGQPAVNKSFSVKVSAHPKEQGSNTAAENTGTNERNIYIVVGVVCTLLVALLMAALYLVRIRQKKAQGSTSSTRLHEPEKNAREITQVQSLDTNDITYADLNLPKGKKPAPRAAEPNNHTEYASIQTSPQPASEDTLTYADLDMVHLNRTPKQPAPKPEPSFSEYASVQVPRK
The assay can be described thus: flow cytometry.

For assay [2], the target named is T2, human SIRPβ1 on CHO cells (co-transfected with DAP12) (human, UniProt O00241 30-398).
T2 construct: whole, on cells; co-transfected with DAP12; also called Human SIRPβ1 CHO
T2 sequence (O00241 30-398): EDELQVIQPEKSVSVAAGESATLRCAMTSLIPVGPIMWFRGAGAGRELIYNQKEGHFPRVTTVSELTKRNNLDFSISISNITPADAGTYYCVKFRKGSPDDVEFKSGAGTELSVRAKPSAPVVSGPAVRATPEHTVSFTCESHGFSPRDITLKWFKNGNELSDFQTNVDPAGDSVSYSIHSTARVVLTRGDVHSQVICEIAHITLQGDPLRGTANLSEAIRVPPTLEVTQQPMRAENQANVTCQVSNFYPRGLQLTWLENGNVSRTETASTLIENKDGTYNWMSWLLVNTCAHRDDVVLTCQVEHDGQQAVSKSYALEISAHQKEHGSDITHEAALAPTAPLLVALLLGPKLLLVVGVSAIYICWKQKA
The assay is described as follows: flow cytometry.

For assay [3], the target named is T3, cynomolgus monkey SIRPγ on CHO cells (cynomolgus monkey, UniProt Q9P1W8 29-386 (human entry)).
T3 construct: also called Cyno SIRPγ CHO
T3 chain: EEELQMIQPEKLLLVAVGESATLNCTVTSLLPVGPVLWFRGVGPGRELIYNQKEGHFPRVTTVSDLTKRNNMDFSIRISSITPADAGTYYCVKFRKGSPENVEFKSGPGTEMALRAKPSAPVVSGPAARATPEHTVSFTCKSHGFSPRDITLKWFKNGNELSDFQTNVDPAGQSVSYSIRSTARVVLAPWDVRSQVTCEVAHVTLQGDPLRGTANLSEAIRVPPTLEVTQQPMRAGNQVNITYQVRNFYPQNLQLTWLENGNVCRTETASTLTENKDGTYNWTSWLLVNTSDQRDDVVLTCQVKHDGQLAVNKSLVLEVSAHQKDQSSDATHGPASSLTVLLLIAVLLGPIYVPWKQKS
The assay can be described thus: flow cytometry, myc-scFv PPE. The protocol: (§1) Selected antibodies were tested for binding to stably transfected human SIRPγ, SIRPαV1, or SIRPβ1 (co-transfected with DAP12) Chinese hamster ovary (CHO) cells via flow cytometry. A titration of select antibodies was added to the cells and detected using a fluorescently labelled secondary anti-rat IgG antibody or anti-human IgG antibody. Graphs depict the median fluorescence intensity (MFI) at each concentration. FIGS. 5A and 5G show the binding curves of select antibodies to human SIRPγ, cynomolgus monkey SIRPγ, human SIRPα, cynomolgus monkey SIRPα, human SIRPβ1, or cynomolgus monkey SIRPβl-expressing CHO cells detected using an anti-rat IgG antibody. FIGS. 5B-5F and 5H-5L show the binding curves of select antibodies to human SIRPγ, cynomolgus monkey SIRPγ, human SIRPα, cynomolgus monkey SIRPα, human SIRPβ1, or cynomolgus monkey SIRPβ1-expressing CHO cells detected using an anti-human IgG antibody. […] For select antibodies, each myc-tagged SIRPγ scFv antibody as crude PPE was incubated with each of the SIRP-expressing cell lines stated above along with the parental CHO-K1 cell line. […] Fold change value <2.0 is considered a non-binder.

For assay [4], the target named is T4, human SIRPγ on stably transfected CHO cells (human, UniProt Q9P1W8 29-387).
T4 construct: also called Human SIRPγ CHO
T4 sequence (Q9P1W8 29-387 limits assumed): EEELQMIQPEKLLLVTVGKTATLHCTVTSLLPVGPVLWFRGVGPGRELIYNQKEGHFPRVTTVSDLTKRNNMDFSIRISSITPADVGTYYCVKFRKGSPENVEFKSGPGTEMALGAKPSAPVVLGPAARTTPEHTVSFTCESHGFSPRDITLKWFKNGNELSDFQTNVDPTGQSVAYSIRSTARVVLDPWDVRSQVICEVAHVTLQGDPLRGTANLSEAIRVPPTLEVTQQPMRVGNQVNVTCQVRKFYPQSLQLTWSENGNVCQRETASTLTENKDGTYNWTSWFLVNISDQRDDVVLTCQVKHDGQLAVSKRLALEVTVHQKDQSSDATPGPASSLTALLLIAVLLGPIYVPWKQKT
The assay is described as follows: flow cytometry, myc-scFv PPE. The protocol: as §1

In assay [5] the target is T5, human SIRPγ-His monomer protein (human, UniProt Q9P1W8 29-360).
T5 construct: also called hSIRPγ
T5 sequence (Q9P1W8 29-360 limits assumed): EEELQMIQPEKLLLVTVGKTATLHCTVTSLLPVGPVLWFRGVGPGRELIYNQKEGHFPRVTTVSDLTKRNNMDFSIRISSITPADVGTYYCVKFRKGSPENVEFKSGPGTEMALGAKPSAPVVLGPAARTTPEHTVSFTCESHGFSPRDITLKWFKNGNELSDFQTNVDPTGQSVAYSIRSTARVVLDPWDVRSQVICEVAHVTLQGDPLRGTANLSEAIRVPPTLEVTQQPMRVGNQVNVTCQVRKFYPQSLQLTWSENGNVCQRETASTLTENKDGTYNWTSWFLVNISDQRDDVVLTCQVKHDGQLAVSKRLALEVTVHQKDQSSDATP
The assay is described as follows: BLI Octet, V5-scFv PPE captured, SIRP-His 500 nM.

Some results are limits rather than exact numbers.

B1: Antibody 16 (scFv, V domains shown)
VH: QVQLVQSGAEVKKPGASVKVSCKASGYTFTSYYMHWVRQAPGQGLEWMGWINPNSGNAGFAQKFQGRVTMTRDTSTSTVYMELSSLRSEDTAVYYCARGPVYSYGPFDYWGQGTLVTVSS
VL: DIQMTQSPSSLSASVGDRVTITCRASQGISTYLAWYQQKPGKAPKLLIYAASTLQSGVPSRFSGSGSGTDFTLTISSLQPEDFATYYCQQSHSAPITFGQGTKVEIK
notes: scFv in crude PPE, V5/myc-tagged
Take B1: the binding result in assay [1] and in assay [2] was “no binding (tested: fold change <2.0)” in each case. Further, the “MFI fold change over parental CHO” value in assay [3] amounted to 16.3 fold; in assay [4] it was 33 fold.

B2: Antibody 33 (scFv, V domains shown)
VH: QVQLVQSGAEVKKPGASVKVSCKASGYTFTSYYMHWVRQAPGQGLEWMGWMNPNSDNTGYAQKFQGRVTMTRDTSTSTVYMELSSLRSEDTAVYYCARVGVGYGYYYYGMDVWGQGTTVTVSS
VL: DIQMTQSPSSLSASVGDRVTITCRAGQSIGDYLNWYQQKPGKAPKLLIYAASSLQSGVPSRFSGSGSGTDFTLTISSLQPEDFATYYCQQSYSTPWTFGQGTKVEIK
notes: as for B1
As to B2, the binding result in assay [1] and in assay [2] was “no binding (tested: fold change <2.0)” in each case. Also, the “MFI fold change over parental CHO” value in assay [3] was determined as 8.02 fold; in assay [4], 20 fold. Further, the kdis in assay [5] was in the range of 0.001 to 0.01 s⁻¹.

B3: Antibody 20 (scFv, V domains shown)
VH: QVQLVQSGAEVKKPGASVKVSCKASGYTFTSYDINWVRQAPGQGLEWMGWMNPNSGNTGYAQKFQGRVTMTRDTSTSTVYMELSSLRSEDTAVYYCARESYAYCSSTSCYDAFDIWGQGTMVTVSS
VL: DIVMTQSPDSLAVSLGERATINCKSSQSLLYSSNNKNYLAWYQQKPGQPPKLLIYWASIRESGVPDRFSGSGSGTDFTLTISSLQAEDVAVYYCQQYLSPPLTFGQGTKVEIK
notes: as for B1
Turning to B3, the binding result in assay [1] and in assay [2] was “no binding (tested: fold change <2.0)” in each case. The “MFI fold change over parental CHO” value in assay [3] amounted to 10.5 fold; in assay [4] it was 8.87 fold. For the same molecule, in assay [5], the kdis was less than 0.001 s⁻¹.

B4: Antibody 21 (scFv, V domains shown)
VH: EVQLLESGGGLVQPGGSLRLSCAASGFTLGSYWMHWVRQAPGKGLEWVSLISWDGGSTYYADSVKGRFTISRDNSKNTLYLQMNSLRAEDTAVYYCAKGPWVGYSGYDLNYYYYGMDVWGQGTTVTVSS
VL: DIQMTQSPSSLSASVGDRVTITCRASQDIRRALAWYQQKPGKAPKLLIYAASSLQSGVPSRFSGSGSGTDFTLTISSLQPEDFATYYCLQHNSYPPTFGQGTKLEIK
notes: as for B1
With B4, the binding result in assay [1] and in assay [2] was “no binding (tested: fold change <2.0)” throughout. Moreover, the results for the “MFI fold change over parental CHO” value in assay [3] and in assay [4] were 96.1 fold and 51.4 fold, respectively. Further, in assay [5], the kdis lay within 0.001 to 0.01 s⁻¹.

B5: Antibody 27 (scFv, V domains shown)
VH: QVQLVQSGAEVKKPGASVKVSCKASGYTFTSHDINWVRQAPGQGLEWMGWMNANNGNAGYAQKFQGRVTMTRDTSTSTVYMELSSLRSEDTAVYYCAKDLSPSSSWSTYYYYYGMDVWGQGTMVTVSS
VL: DIQMTQSPSSLSASVGDRVTITCRASQSISNLLAWYQQKPGKAPKLLIYAASSLQSGVPSRFSGSGSGTDFTLTISSLQPEDFATYYCQQSYSTPYTFGQGTKLEIK
notes: as for B1
Regarding B5, the binding result in assay [1] and in assay [2] was “no binding (tested: fold change <2.0)” each time. The “MFI fold change over parental CHO” value in assay [3] was 5.81 fold; in assay [4] it was 23.2 fold. In assay [5], this molecule came in with a kdis of 0.001 to 0.01 s⁻¹.

B6: Antibody 24 (scFv, V domains shown)
VH: QVQLVQSGAEVKKPGASVKVSCKASGYTFTGYYMHWVRQAPGQGLEWMGIINPSGGSTNYAQKFQGRVTMTRDTSTSTVYMELSSLRSEDTAVYYCARGPIGYGMDVWGQGTLVTVSS
VL: DIQMTQSPSSLSASVGDRVTITCRASQGIGNDLGWYQQKPGKAPKLLIYAASNLETGVPSRFSGSGSGTDFTLTISSLQPEDFATYYCLQHHSYPFTFGQGTKLEIK
notes: as for B1
Turning to B6, the binding result in assay [1] and in assay [2] was “no binding (tested: fold change <2.0)” each time. The “MFI fold change over parental CHO” value in assay [3] was 9.85 fold; in assay [4], 11.1 fold. This molecule came in with a kdis in assay [5] of more than 0.01 s⁻¹.

B7: Antibody 32 (scFv, V domains shown)
VH: QVQLVQSGAEVKKPGASVKVSCKASGYTFTSYYMYWVRQAPGQGLEWMGWINPNSGNTGYAQKFQGRVTMTRDTSTSTVYMELSSLRSEDTAVYYCAKDRRRGVGLAAAGTSAFDIWGQGTMVTVSS
VL: DIQMTQSPSSLSASVGDRVTITCRASQSISNWLAWYQQKPGKAPKLLIYAASSLQSGVPSRFSGSGSGTDFTLTISSLQPEDFATYYCQQSYSTPYTFGQGTKLEIK
notes: as for B1
With B7, the binding result in assay [1] and in assay [2] was “no binding (tested: fold change <2.0)” in each case. For the same molecule, the “MFI fold change over parental CHO” value in assay [3] came out at 9.63 fold; in assay [4] it was 10.2 fold. Besides, in assay [5], the kdis is less than 0.001 s⁻¹.

B8: Antibody 14 (scFv, V domains shown)
VH: QVQLVQSGAEVKKPGASVKVSCKASGYTFTSYYMHWVRQAPGQGLEWMGWVDPNNGDTGYAQKFQGRVTMTRDTSTSTVYMELSSLRSEDTAVYYCARDNWGSLDVWGKGTTVTVSS
VL: DIVMTQSPLSLPVTPGEPASISCRSSQSLLHSNGYNYLDWYLQKPGQSPQLLIYAASTLQSGVPDRFSGSGSGTDFTLKISRVEAEDVGVYYCMQGLQTLYSFGQGTKLEIK
notes: as for B1
Turning to B8, the binding result in assay [2] was “no binding (tested: fold change <2.0)”. In addition, the figures for the “MFI fold change over parental CHO” value in assay [3] and in assay [4] were 18 fold and 19.6 fold, respectively. Besides, the kdis in assay [5] lay within 0.001 to 0.01 s⁻¹.

B9: Antibody 35 (scFv, V domains shown)
VH: QVQLVQSGAEVKKPGASVKVSCKASGYTFTSYYIHWVRQAPGQGLEWMGTINPSGGSTSYAQKFQGRVTMTRDTSTSTVYMELSSLRSEDTAVYYCARETSRWLRDYYYGMDVWGQGTTVTVSS
VL: DIVMTQSPLSLPVTPGEPASISCRSSQSLLHSNGYNYLDWYLQKPGQSPQLLIYDASSLESGVPDRFSGSGSGTDFTLKISRVEAEDVGVYYCMQGTHWPLTFGGGTKVEIK
notes: as for B1
On to B9, for which the binding result in assay [1] is “no binding (tested: fold change <2.0)”. The “MFI fold change over parental CHO” value in assay [3] came out at 12.8 fold; in assay [4] it was 18.3 fold. Moreover, in assay [5], the kdis was 0.001 to 0.01 s⁻¹.

B10: Antibody 9 (scFv, V domains shown)
VH: QVQLVQSGAEVKKPGASVKVSCKASGYSFSDYYMHWVRQAPGQGLEWMGWMSPNSGNTGYAQKFQGRVTMTRDTSTSTVYMELSSLRSEDTAVYYCARQREEYGHYYYGMDVWGQGTMVTVSS
VL: EIVMTQSPATLSVSPGERATLSCRASQSLGSTYLAWYQQKPGQAPRLLIYGASTRATGIPARFSGSGSGTEFTLTISSLQSEDFAVYYCQQYYSSPPTFGQGTKVEIK
notes: as for B1
As for B10, the binding result in assay [1] and in assay [2] was “no binding (tested: fold change <2.0)” in each case. For the same molecule, the “MFI fold change over parental CHO” value was found to be 6.87 fold in assay [3] and 10.4 fold in assay [4]. In addition, the kdis in assay [5] is 0.001 to 0.01 s⁻¹.

B11: Antibody 29 (scFv, V domains shown)
VH: QVQLVQSGAEVKKPGASVKVSCKASGGTFSSYAISWVRQAPGQGLEWMGIINPSSSSTGYAQKFQGRVTMTRDTSTSTVYMELSSLRSEDTAVYYCARAGYYDSSGYYYSPYYGMDVWGQGTTVTVSS
VL: EIVMTQSPATLSVSPGERATLSCRASQSISGSYLAWYQQKPGQAPRLLIYGASTRATGIPARFSGSGSGTEFTLTISSLQSEDFAVYYCQQYGSFPFTFGPGTKVDIK
notes: as for B1
As to B11, the binding result in assay [1] and in assay [2] was “no binding (tested: fold change <2.0)” each time. Moreover, the “MFI fold change over parental CHO” value in assay [3] was found to be 13 fold; in assay [4], 11.4 fold. The molecule further registered a kdis in assay [5] of 0.001 to 0.01 s⁻¹.
